# Laboratory results as given in PMC10960945, “A nanobody inhibitor of Fascin-1 actin-bundling activity and filopodia formation” (Open Biology, 2024).
# Target: Fascin-1 1-493 (full-length human Fascin-1 WT, untagged) (human, UniProt Q16658)
# Assay: pull-down; in vitro co-precipitation of recombinant proteins: His-tagged Nbs immobilised on Nickel Sepharose as bait for untagged Fascin-1; SDS-PAGE
# Conditions: both partners purified
row,binding result,Binder
1,binds,"Nb 3G11 (VHH, also called nanobody 3G11; not shown: His-tag, C-terminal, kept) VHH: QVQLQESGGGLVQAGGSLRLSCAVSGRLNSRYSMGWFRQAPGKEREFVAVVKWTTGGTMYADSVKGRFTISRDNRKNTVYLQMNTLKPEDTALYYCASRPDYSNSYYYTTVSDYSDWGQGTQVTVSS"
2,binds,"Nb 3B9 (VHH, Eluted in SEC as a dimer and a monomer population; the two were kept separate in the later assays and counted as two of the 14 Nbs; not shown: His-tag, C-terminal, kept) VHH: QVQLQESGGGLVQAGGSLRLSCAASGRTFSSYAMGWFRQAPGMEREFVAAIPWIGGNTYYADSVKGRFTISRDNAKTLYLLMNSLKPEDTALYYCAARAHSYVLSTSPSHYDYWGQGTQVTVSS"
3,binds,"Nb 3G9 (VHH, Eluted in SEC as a dimer and a monomer population; the two were kept separate in the later assays and counted as two of the 14 Nbs; not shown: His-tag, C-terminal, kept) VHH: QVQLQESGGGLVQAGDSLRLSCAASRRTSNTYAMGWFRQAPGKEREFVAAIPWIGGNTYYADSVKGRFTISRDNAKTLYLLMNSLKPEDTALYYCAARAHSYVLSTSPSHYDYWGQGTQVTVSS"
4,binds,"Nb 3H7 (VHH, also called nanobody 3H7; not shown: His-tag, C-terminal, kept) VHH: QVQLQESGGGLVQAGGSLRLSCAGPVRAFNTYAMGWFRQAPGKEREFVAAITRSGDVTYYSNSVKGRFTISRENAKNTVYLHMNSLKPEDTAVYSCAADAQLTPLNPRAQEYAYWGQGTQVTVSS"
